Laboratory results published in IntAct's records for PubMed 18001824.

B1: E3 ubiquitin-protein ligase RNF8 (Homo sapiens), O76064 (parent)
chain: MGEPGFFVTGDRAGGRSWCLRRVGMSAGWLLLEDGCEVTVGRGFGVTYQLVSKICPLMISRNHCVLKQNPEGQWTIMDNKSLNGVWLNRARLEPLRVYSIHQGDYIQLGVPLENKENAEYEYEVTEEDWETIYPCLSPKNDQMIEKNKELRTKRKFSLDELAGPGAEGPSNLKSKINKVSCESGQPVKSQGKGEVASTPSDNLDPKLTALEPSKTTGAPIYPGFPKVTEVHHEQKASNSSASQRSLQMFKVTMSRILRLKIQMQEKHEAVMNVKKQTQKGNSKKVVQMEQELQDLQSQLCAEQAQQQARVEQLEKTFQEEEQHLQGLEIAQGEKDLKQQLAQALQEHWALMEELNRSKKDFEAIIQAKNKELEQTKEEKEKMQAQKEEVLSHMNDVLENELQCIICSEYFIEAVTLNCAHSFCSYCINEWMKRKIECPICRKDIKSKTYSLVLDNCINKMVNNLSSEVKERRIVLIRERKAKRLF

Variants of: B1
Settings: with mdc1_human MDC1, Q14676
Sequence of mdc1_human MDC1, Q14676 (Q14676 whole entry): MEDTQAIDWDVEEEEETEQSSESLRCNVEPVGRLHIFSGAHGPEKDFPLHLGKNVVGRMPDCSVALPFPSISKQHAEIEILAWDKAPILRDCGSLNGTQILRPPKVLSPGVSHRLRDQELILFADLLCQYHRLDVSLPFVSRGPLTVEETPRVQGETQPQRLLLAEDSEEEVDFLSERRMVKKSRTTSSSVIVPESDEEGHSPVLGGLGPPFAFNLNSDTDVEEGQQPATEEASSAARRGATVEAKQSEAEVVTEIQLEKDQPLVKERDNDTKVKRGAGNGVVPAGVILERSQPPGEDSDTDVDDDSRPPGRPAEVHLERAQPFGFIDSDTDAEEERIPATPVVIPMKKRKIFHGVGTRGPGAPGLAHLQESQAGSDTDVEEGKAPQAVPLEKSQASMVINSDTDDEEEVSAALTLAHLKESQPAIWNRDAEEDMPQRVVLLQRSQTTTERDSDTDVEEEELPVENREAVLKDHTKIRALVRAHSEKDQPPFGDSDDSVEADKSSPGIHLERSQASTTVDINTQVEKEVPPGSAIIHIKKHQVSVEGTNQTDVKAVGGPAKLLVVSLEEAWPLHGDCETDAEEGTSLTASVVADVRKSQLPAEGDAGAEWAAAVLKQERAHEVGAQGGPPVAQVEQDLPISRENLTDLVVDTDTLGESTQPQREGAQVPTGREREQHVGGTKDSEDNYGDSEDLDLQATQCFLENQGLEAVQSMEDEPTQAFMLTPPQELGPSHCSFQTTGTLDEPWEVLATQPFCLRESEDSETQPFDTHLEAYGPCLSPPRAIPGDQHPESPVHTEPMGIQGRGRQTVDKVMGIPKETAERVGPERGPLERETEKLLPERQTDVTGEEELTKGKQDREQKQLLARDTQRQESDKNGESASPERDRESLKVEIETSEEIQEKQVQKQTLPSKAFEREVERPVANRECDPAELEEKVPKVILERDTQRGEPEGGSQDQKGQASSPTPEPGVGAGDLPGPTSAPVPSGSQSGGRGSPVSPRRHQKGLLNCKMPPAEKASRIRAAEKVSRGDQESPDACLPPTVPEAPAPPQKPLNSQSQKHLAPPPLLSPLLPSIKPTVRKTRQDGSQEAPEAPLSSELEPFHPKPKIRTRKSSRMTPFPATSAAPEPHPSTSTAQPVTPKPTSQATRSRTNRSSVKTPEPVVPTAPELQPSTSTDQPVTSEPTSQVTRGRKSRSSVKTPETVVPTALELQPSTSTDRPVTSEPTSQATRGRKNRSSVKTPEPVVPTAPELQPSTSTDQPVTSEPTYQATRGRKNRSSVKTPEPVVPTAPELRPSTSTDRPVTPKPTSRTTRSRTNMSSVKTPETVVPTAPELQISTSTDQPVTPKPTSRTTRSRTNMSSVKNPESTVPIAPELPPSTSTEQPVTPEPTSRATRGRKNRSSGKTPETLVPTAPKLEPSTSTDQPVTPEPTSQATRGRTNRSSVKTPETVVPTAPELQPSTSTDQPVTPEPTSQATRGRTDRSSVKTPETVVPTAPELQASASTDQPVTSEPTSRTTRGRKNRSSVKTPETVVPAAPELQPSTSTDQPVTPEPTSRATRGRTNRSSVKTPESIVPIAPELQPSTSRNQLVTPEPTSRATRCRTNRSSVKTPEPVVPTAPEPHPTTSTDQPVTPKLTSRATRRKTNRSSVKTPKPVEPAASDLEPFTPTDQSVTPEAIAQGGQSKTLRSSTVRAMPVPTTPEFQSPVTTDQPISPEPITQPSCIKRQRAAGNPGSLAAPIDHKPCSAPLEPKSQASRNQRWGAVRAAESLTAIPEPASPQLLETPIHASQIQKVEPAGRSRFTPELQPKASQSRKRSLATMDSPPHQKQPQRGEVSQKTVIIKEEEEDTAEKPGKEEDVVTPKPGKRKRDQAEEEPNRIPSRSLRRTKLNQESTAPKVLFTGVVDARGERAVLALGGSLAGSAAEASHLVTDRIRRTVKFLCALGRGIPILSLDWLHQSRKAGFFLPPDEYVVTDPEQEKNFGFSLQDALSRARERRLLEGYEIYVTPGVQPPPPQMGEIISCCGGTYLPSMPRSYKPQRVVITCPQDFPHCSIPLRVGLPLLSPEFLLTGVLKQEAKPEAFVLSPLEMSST

| Variant | effect of a mutation on the interaction |
| --- | --- |
| R42A | disrupting interaction |
